According to patent US7422862B2, “Methods for identifying modulators of apoptosis” (The Burnham Institute, priority 2001, dated 2008):
No end group written: not given here.

Assays:
CSM14.1 cells = assay: Apoptosis of CSM14.1 cells induced by various stimuli; format: cell-based, rat
Description: (A-D) CMS14.1 neuronal cells were transfected with plasmids encoding Flag-HN peptide or Flag-control (27-amino-acid) peptide, together with GFP-encoding plasmid at 4:1 ratio. Cells were either cultured without further treatment (open bars) or subjected to various apoptotic stimuli for various times (dark bars), including (A) STS for 8 h (dark symbols=Flag-control; open symbols=Flag-HN), (B) Serum-deprivation for 72 h, (C) 10 joules/m2 Uvirradiation followed by 24 h culture, and (D) 50 ng/ml TNFa in […] for 24 h. Cells were then fixed and stained with DAPI to determine the percentage of apoptotic cells, evaluating=200 GFP-positive cells per sample (mean±SD; n=3). (inset) Lysates prepared from replicate cultures of transfected cells were normalized for total protein content and analyzed by immunoblotting using anti-Flag (top) and anti-tubulin (bottom) antibodies, confirming production of similar amounts of Flag-control and Flag-HN peptides. (E) SF268 cells were transfected with Humanin siRNA (HN-siRNA) (dark bars) or mutant siRNA containing two mismatches (mut-siRNA) as negative control (open bars). (Upper panel) After 72 hr, cell lysates were prepared and 100 ug was analyzed by immunoblotting using anti-HN and anti-tubulin (as a loading control) antibodies. (Lower panel) At 72 hr after siRNA transfection, SF268 cells were cultured with 0.1 μM STS for 8 hrs, then % apoptosis was determined (mean+std dev; n=3). (F) HN protects against Bax- but not Bak-induced apoptosis. CSM14.1 neuronal cells were co-transfected with pcDNA3-HA-Bax or pcDNA3-HA-Bak together with plasmids encoding with GFP (indicated by “-”), GFP-HN, or GFP-HN(C8P). Apoptosis (%) was measured 48 hrs later among GFP-positive cells. (G) Humanin inhibits STS-induced apoptosis in wild type HCT116 cells, but not HCT116 BAX -/- cells. HCT116 cells heterozygous or homozygous for BAX gene inactivation were transfected with plasmids encoding GFP (open bars) or GFP-HN (dark bars). After 24 h, cells were cultured without (C) or with STS (0.2 μM for wild type and 1.0 μM for Bax - /- cells) for 8 h, then % apoptosis was determined for GFP-positive cells (mean+std dev; n=3). (inset) Lysates from the cells were analyzed by immunoblotting (20 ug) using anti-Bax (top) and anti-Bid (bottom) antibodies. (H) HN prevents Bax-induced cell death in yeast. Cells were co-transformed with YEp51-Bax (encoding Bax under control of a GAL10 promoter) and plasmid control (C) or plasmids encoding Humanin or Humanin(C8P) fusion polypeptides. Cells initially grown in glucose-containing medium were streaked onto either glucose (top) or galactose (bottom) plates to suppress or induce Bax expression, respectively.
For these experiments, Flag-epitope tagged Humanin (Flag-HN) or Flag control polypeptides were expressed in CSM14.1 cells, an immortalized rat hippocampal neuronal cell line that has been used as a model for neuronal apoptosis studies (Kermer et al., Cell Death Differ. 9:405-413 (2002)). Apoptosis of CSM14.1 cells induced by Staurosporine (STS), UV-irradiation, and serum-deprivation was suppressed by Flag-HN (FIG. 6A-C). […] Note that at higher doses of STS (FIG. 6A), Humanin-mediated protection was overcome, indicating Humanin-insensitive mechanisms of apoptosis induction exist, even when using a mitochondria-dependent death stimuli.
Apoptosis assays were performed as follows. […]

Bax [1] = molecular target: T1, Bax (Homo sapiens, UniProt Q07812); assay: Suppression of apoptosis induced by Bax over-expression (Humanin mutants); format: cell-based; set-up: expressed in transfected cells; host or cells: HEK293T; details: GFP-fusion polypeptides, 3:1 ratio of HN:Bax plasmid DNA
Description: (§1) Apoptosis assays were performed as follows. Both floating and adherent cells (after trypsinization) were collected 48 hr after transfection, fixed, and stained using 4′,6-diamidine-2′-phenylindole dihydrochloride (DAPI) for assessing apoptosis based on nuclear fragmentation and chromatin condensation (Fields and Song, supra (1989)).
(§2) In order to explore whether a correlation exists between Humanin binding to Bax and Humanin-mediated suppression of apoptosis, Bax was co-expressed with various GFP-fusion polypeptides encoding wild-type, full-length Humanin or various truncation and site-specific mutants of Humanin (Table 1). Expression of all GFP-fusion polypeptides was confirmed by immunoblotting, and ability to bind Bax was determined by co-immunoprecipitation assay. Each Humanin mutant was scored for ability to suppress apoptosis induced by Bax over-expression by >50% using a 3:1 ratio of HN:Bax plasmid DNA. […] Based on these studies, an active region of the 24 amino-acid Humanin peptide, mapped to residues 7-17.
Cell culture and transfections were performed as follows. CSM14.1, HCT116, Cos-7, and SF268 cells were cultured in DMEM high glucose media (Irvine Scientific, Santa Ana, Calif.) containing 10% fetal bovine serum (FBS). PC-3 cells were cultured with RPMI 1640 media containing 10% FBS. Transfection of cells was performed using SuperFect (Qiagen, Chatsworth, Calif.) or LipofectaminePLUS reagent ([…]).

[2] = previously reported (Hashimoto et al.); cited from earlier work
Bax [3] = molecular target: T1, Bax; assay: Bax-induced apoptosis in transfected neuronal cells (DAPI staining); format: cell-based; set-up: expressed in transfected cells
Description: (A) HEK293T cells were transfected with pcDNA3-HA-Bax together with plasmids encoding GFP, GFP-HN(N), or GFP-HN(M). Cell lysates were immunoprecipitated with polyclonal anti-GFP antibody. Immunoprecipitates (IP) or cell lysates were analyzed by immunoblotting using anti-HA or anti-GFP antibodies, respectively. (B) CSM14.1 neuronal cells were co-transfected with pcDNA3-HA-Bax together with plasmids encoding GFP, GFP-HN(N), or GFP-HN(M). Percent apoptosis was determined 48 h later by DAPI staining (mean±SD; n=3).
(§3) Rat neuronal cell line CSM14.1 cells were transfected with various plasmids using the Lipofectamine reagent (Invitrogen). For transfection, 10×10^5 cells were plated per well using 6 well plates. Each well received 1 μg DNA plus […] of Lipofectamine. After 24 hours of transfection, the percentage of cell death was determined using 4′-6-diamidino-2-phenylindole (DAPI) staining. […] The data shown were obtained using the cytosolic form of Humanin; however, both cytosolic and mitochondrial forms of Humanin were tested and the results were the same.
as §1
Since Humanin co-immunoprecipitates with Bax but not Bak, the effects of Humanin over-expression on apoptosis induced by these members of the Bcl-2 family was compared. […] Similar results were obtained regardless of whether Humanin was fused to the N- or C-terminus of GFP, with both of these GFP fusion polypeptides localizing to the cytosol of cells.

Bax [4] = molecular target: T1, Bax; assay: Co-immunoprecipitation of GFP-Humanin fusion polypeptides with Bax in transfected cells; format: binding; set-up: expressed in transfected cells; host or cells: HEK293T; key to Bax binding: +: ability to bind Bax was determined by co-immunoprecipitation assay; −: lacked Bax-binding activity; details: for Bax binding: GFP-fusion polypeptides, co-immunoprecipitation
Source text: Humanin (HN) cDNA was sub-cloned into a Green Fluorescence Protein (GFP) expression vector GFP-Cl at the Xhol/Hind III sites, producing a GFP-HN fusion polypeptide. GFP and GFP-HN were transfected into 293T cells with pcDNA3-HA-Bax. Cell lysates from these cells were immunoprecipitated with anti-GFP antibody and subsequently blotted with anti-HA antibody. The lysates were also blotted with ani-GFP antibody to confirm polypeptide expression. […] The data shown were obtained using the cytosolic form of Humanin; however, both cytosolic and mitochondrial forms of Humanin were tested and the results were the same.
Co-immunoprecipitation assays were performed using Humanin polypeptides expressed as fusion polypeptides with the Green Fluorescent Protein (GFP) in human cells. Wild-type Humanin fused to GFP is referred to as GFP-HN and a mutant form of Humanin, where the cysteine at position 8 is replaced with proline, fused to GFP is referred to as GFP-C8P. […] Immunoblot analysis of lysates of the transfected cells confirmed production of all proteins. In addition, GFP-HN also coimmunoprecipitated endogenous Bax from cell lines, which contain relatively high levels of the Bax protein.
Immunoblotting and immunoprecipitations were performed as follows. Immunoblotting was performed as described previously (Fields and Song, Nature 340:245-246 (1989)). For co-immunoprecipitations, cells were cultured in 50 uM […] Valine Alanine Asparate fluoromethyl-ketone (zVAD-fmk) to prevent apoptosis. Cells were suspended in lysis buffer (50 mM Tris-HCl, pH7.4; 150 mM NaCl; 20 mM EDTA; 50 mM NaF; 0.5% NP-40; 0.1 mM Na3VO4; 20 ug/ml Leupeptin; 20 ug/ml Aprotinin; 1 mM DTT; and 1 mM PMSF). Lysates (200 ul diluted in 1 ml final volume of lysis buffer) were cleared by incubation with 15 ul of protein G-Sepharose 4B (Zymed) and then incubated with 15 ul of polyclonal antibody and 15 ul of protein G at 4° C. overnight. Beads were then washed 4 times with 1.5 mls lysis buffer before boiling in Laemmli sample buffer and performing SDS-PAGE/immunoblotting.
as §2

t-Bid = molecular target: T2, t-Bid (Homo sapiens, UniProt P55957); assay: Bid-induced apoptosis in CSM14.1 cells (DAPI staining); format: cell-based; set-up: expressed in transfected cells; host or cells: CSM14.1 rat hippocampal neuronal cells; details: 24 hours after transfection
T2 sequence (P55957 61-195 limits assumed): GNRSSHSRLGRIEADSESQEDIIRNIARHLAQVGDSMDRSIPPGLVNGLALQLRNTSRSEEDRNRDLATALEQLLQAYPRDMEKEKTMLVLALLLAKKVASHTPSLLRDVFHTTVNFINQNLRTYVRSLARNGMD
Description: Apoptosis was examined by DAPI staining. The data shown were obtained using the cytosolic form of Humanin; however, both cytosolic and mitochondrial forms of Humanin were tested and the results were the same.
as §3

T1 sequence (Q07812 whole entry, species assumed, the tested form may be a part): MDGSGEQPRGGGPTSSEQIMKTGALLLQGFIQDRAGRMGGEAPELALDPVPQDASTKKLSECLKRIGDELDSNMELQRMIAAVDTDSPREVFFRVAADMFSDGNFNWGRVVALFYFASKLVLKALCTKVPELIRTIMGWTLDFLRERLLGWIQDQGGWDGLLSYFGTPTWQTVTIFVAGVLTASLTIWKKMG

For “Flag-HN: Flag-epitope tagged Humanin expressed in cells (MAPRGFSCLLLLTSEIDLPVKRRA; also: Flag epitope tag; UniProt Q8IVG9 1-24, looked up)”, the “apoptosis induced by UV-irradiation” value (CSM14.1 cells) was “suppressed”, the “apoptosis induced by serum-deprivation” value (CSM14.1 cells) was “suppressed” and the “apoptosis induced by TNF” value (CSM14.1 cells; Bax-independent death stimulus) was “not suppressed”. The “apoptosis induced by Staurosporine (STS)” value (CSM14.1 cells; STS 8 h) was “suppressed” and the “protection at higher doses of STS” value (CSM14.1 cells; higher doses of STS) was “overcome”.

For “GFP-HN(C8P): mutant Humanin, cysteine at position 8 replaced with proline, fused to GFP (MAPRGFSPLLLLTSEIDLPVKRRA; also: fused to GFP; UniProt Q8IVG9 1-24, looked up, variant C8P)”, the Bax suppression (Bax [1]) is given as “− (failed to protect against Bax-induced apoptosis)”, the “anti-apoptotic activity when expressed in cells” value [2] is given as “lack anti-apoptotic activity” and the “suppression of apoptosis induced by Bax” value (Bax [3]; CSM14.1 or PC-3 cells, transient co-transfection) is given as “did not suppress”. For the same substance, the “co-immunoprecipitation with tagged Bax” value (Bax [4]; 293T/HEK293T cells, anti-GFP immunoprecipitation) was “did not” and the Bax binding (Bax [4]) was “−”.

With “Humanin (C8A): mutant form of Humanin where the cysteine at position 8 was mutated to an alanine (MAPRGFSALLLLTSEIDLPVKRRA; also: fused to GFP; UniProt Q8IVG9 1-24, looked up, variant C8A)” the Bid-induced apoptosis (t-Bid) was “not able to decrease” and the Bax-induced apoptosis (Bax [3]; CSM14.1 cells, 24 hours after transfection, DAPI) was “not able to decrease”.

For “L9R: GFP-fusion of Humanin site-specific mutant L9R (MAPRGFSCRLLLTSEIDLPVKRRA; also: fused to GFP; UniProt Q8IVG9 1-24, looked up, variant L9R)”, the Bax suppression (Bax [1]) is listed as “− (failed to protect against Bax-induced apoptosis)”, the “anti-apoptotic activity when expressed in cells” value [2] is listed as “lack anti-apoptotic activity” and the Bax binding (Bax [4]) is listed as “−”.
